Reference: patent publication US20150175707A1

Columns and labels:
[1] = target: IgG1-005-E345R/E430G/Y436I/S440K (human); experiment: HP-SEC of an equimolar mixture, PBS pH 7.4; Fc:Fc hetero-oligomerization
[2] = target: IgG1-005-E345R/E430G/S440K (human); experiment: as above
[3] = target: C1q from pooled human serum (human) (UniProt P02745); experiment: C1q binding ELISA; antibody dilution series coated, 3% pooled human serum as C1q source, anti-C1q detection
[4] = target: Protein A (ready-to-use protein A sensortips, Fortebio) (Staphylococcus aureus) (UniProt P38507); experiment: ratio of the concentrations by A280 and by Octet protein A sensor tips
[5] = target: Protein A (ready-to-use protein A sensortips, Fortebio) (Staphylococcus aureus) (UniProt P38507); experiment: Octet QK, protein A sensor tips, against an IgG standard curve; A280 concentration of the sample 3818 µg/ml
[6] = target: FcγRIIIa receptor, V158 (high affinity) variant, on Jurkat effector cells (UniProt P08637); experiment: cell-based or functional assay
[7] = target: IgG1-005-E345R/E430G/S440Y (human); experiment: HP-SEC with multiple angle light scattering; Fc:Fc self-oligomerization
[8] = target: Protein A (ready-to-use protein A sensortips, Fortebio) (Staphylococcus aureus) (UniProt P38507); experiment: Octet QK, protein A sensor tips, against an IgG standard curve; A280 concentration of the sample 2905 µg/ml
[9] = target: IgG1-005-E345R/E430G/S440Y (human); experiment: dynamic light scattering, 2.86 mg/mL in PBS pH 7.4; Fc:Fc self-oligomerization

Row | Substance | % multimers (HP-SEC) [1] | % multimers (HP-SEC) [2] | EC50 [3] | A280/Protein A × 100 (%) [4] | Octet-Protein A (apparent IgG concentration) [5] | EC50 (ADCC reporter assay) [6] | Maximal signal (ADCC reporter assay) [6] | apparent average MW of the multimeric peak (MALS) [7] | monomeric subunits per complex (MALS) (monomeric subunits) [7] | Octet-Protein A (apparent IgG concentration) [8] | apparent MW (DLS) [9] | monomeric subunits per complex (DLS) (monomeric subunits) [9]
1 | IgG1-005-E345R/E430G/K439E/S440Y (antibody) | 93% | 65% |  |  |  |  |  |  |  |  |  | 
2 | HuMab 005 (wild type IgG1-005), fully human IgG1,κ antibody against human CD38 |  |  | 1.55 µg/mL | 0.95% | 3620 µg/mL | 0.0095 µg/mL | 335000 RLU |  |  |  |  | 
3 | HuMab 005 mutant E345R (antibody) |  |  | 0.836 µg/mL |  |  |  |  |  |  |  |  | 
4 | IgG1-005-E345R/E430G/S440Y (antibody) |  |  | 0.52 µg/mL | 0.71% |  | 0.036 µg/mL | 394000 RLU | 772 kDa | 5.4 | 2050 µg/mL | 876 kDa | 6.17
